This data set concerns the target alpha-thrombin (Homo sapiens, UniProt P00734;P00734 328-363;364-622). Kind of data set: MST; potassium phosphate pH 7.5, 20 nM aptamer; EMSA: 10 mM sodium cacodylate pH 7.2, 100 mM KCl in D2O, incubation 25 C, 12% native gel in 1x TBE + 10 mM KCl at 10 C; MST: 10 mM Tris-HCl, 100 mM potassium ph.

B1: 2GLE (analogue 2 - GLE tripeptide conjugate) (structured_DNA)
DNA: GGGTTGGGTGTGGGTTGGG
modifications: alpha-deoxyguanosine at positions 1,12; tripeptide GLE conjugated at T4 (N3 position, equivalent of T3 in TBA)
For orientation: Kd means the constant that tells how readily two partners part at equilibrium. Regarding B1, the dissociation constant (Kd) came out at 2.7 nM. To GGTTGGTGTGGTTGG (structured_DNA) [TBA (15-mer thrombin binding aptamer)] belongs 19.5 nM.
